The target in this assay is T1, soluble HCV E2 ectodomain (sE2) (hepatitis C virus).
T1 chain: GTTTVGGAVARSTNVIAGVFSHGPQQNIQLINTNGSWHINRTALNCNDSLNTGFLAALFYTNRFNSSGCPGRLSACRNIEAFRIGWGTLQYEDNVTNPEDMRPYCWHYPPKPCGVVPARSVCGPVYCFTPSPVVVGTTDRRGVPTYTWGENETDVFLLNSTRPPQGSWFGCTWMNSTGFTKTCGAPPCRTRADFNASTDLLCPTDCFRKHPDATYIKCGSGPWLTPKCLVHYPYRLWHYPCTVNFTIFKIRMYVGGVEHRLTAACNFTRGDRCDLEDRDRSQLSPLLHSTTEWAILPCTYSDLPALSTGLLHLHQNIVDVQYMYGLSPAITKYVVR

Among the data in PMC11623273 (2024) are Kd values, retold here.

B1: Fab fragment of neutralizing antibody HCV1 (Fab, V domains shown)
VH: EVQLLESGGGVVQPGRSLRLSCTASGFTFNNYGMHWVRQTPGKGLEWLAVIWFDENNKYYADSVRGRFTISRDNSKNTLFLQMNSLKTEDTAMYYCARDISLVRDAFIYFDFWGLGTLVTVSS
VL: ELTLTQSPATLSLSPGERATLSCRASQSVSSYLAWYQQKPGQAPRLLIYDASNRATGIPARFSGSGSGTDFTLTISSLEPEDFAVYYCQQRSNWITFGQGTRLEIK
Molecule B1 showed a dissociation constant Kd of 294 nM.

Usually Kd stands for the equilibrium constant for the complex coming apart. A low value points to a tighter complex.
